Results published in patent US20250042956A1 (University of California, published 2025).

Legend:
Assay in all cases: IP-MS rep 2
AT3G10480.3 NAC050 = target: T1, AT3G10480.3 NAC050 (Arabidopsis thaliana, UniProt Q9SQX9 1-447, limits assumed)
T1 construct: Endogenous protein found by mass spectrometry
T1 sequence (looked up): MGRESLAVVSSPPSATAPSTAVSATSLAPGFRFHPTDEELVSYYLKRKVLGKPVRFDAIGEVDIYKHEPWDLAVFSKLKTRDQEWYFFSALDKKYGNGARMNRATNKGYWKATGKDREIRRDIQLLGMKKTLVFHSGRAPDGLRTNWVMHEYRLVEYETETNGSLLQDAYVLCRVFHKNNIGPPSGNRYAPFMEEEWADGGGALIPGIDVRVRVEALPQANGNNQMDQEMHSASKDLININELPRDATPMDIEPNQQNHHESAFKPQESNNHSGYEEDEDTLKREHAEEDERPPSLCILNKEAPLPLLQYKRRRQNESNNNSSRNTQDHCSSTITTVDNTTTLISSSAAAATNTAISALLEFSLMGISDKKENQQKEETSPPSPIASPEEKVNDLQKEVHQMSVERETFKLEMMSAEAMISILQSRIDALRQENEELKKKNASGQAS
How it was run: (§1)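 Unopened floral buds (ten grams) from wild-type and FLAG-tagged transgenic Arabidopsis lines were ground in liquid nitrogen, homogenised in 25 mL IP buffer and passed through Miracloth. The lysates were mixed with 250 μL anti-FLAG M2 magnetic beads for 2 hours at 4° C, then washed and eluted in TBS containing 250 μg/mL 3×FLAG peptides. Peptide counts for co-purified proteins were obtained by mass spectrometry of the eluted proteins after trichloroacetic acid precipitation.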

AT5G08450.1 HDC1 = target: T2, AT5G08450.1 HDC1 (Arabidopsis thaliana)
T2 construct: Endogenous protein found by mass spectrometry
How it was run: as §1

AT4G35510.1 TRBIP1 = target: T3, AT4G35510.1 TRBIP1 (Arabidopsis thaliana)
T3 construct: Endogenous protein found by mass spectrometry
T3 chain: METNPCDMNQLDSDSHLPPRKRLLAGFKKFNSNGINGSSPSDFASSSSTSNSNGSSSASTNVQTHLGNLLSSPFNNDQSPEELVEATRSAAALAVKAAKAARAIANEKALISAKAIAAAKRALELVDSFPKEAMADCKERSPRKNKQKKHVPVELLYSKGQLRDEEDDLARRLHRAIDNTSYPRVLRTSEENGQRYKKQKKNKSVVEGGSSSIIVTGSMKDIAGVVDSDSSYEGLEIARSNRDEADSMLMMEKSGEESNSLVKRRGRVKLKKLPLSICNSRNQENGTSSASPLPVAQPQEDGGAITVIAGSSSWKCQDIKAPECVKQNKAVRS
How it was run: as §1

AT5G67580.1 TRB2 = target: T4, AT5G67580.1 TRB2 (Arabidopsis thaliana, UniProt Q9FJW5 1-299)
T4 construct: Endogenous protein found by mass spectrometry
T4 sequence: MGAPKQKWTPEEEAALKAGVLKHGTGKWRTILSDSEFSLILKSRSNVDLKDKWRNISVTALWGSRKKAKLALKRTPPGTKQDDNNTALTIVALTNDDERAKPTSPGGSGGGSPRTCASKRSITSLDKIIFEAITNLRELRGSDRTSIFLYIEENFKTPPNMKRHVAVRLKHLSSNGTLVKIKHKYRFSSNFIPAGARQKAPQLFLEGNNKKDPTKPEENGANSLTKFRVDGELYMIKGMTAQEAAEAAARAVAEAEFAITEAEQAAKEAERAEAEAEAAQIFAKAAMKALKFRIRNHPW
How it was run: as §1

AT1G49950.3 TRB1 = target: T5, AT1G49950.3 TRB1 (Arabidopsis thaliana, UniProt Q8VWK4 1-300, limits assumed)
T5 construct: Endogenous protein found by mass spectrometry
T5 sequence: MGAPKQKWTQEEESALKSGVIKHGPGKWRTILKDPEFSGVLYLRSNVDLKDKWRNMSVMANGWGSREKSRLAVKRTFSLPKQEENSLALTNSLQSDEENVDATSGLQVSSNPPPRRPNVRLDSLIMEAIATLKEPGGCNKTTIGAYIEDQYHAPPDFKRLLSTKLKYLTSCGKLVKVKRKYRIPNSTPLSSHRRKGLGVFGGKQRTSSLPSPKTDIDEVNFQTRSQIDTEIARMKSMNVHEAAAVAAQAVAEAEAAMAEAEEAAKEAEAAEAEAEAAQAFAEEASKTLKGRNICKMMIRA
How it was run: as §1

AT3G20740.1 FIE = target: T6, AT3G20740.1 FIE (Arabidopsis thaliana, UniProt Q9LT47 1-369)
T6 construct: Endogenous protein found by mass spectrometry; also called FERTILIZATION INDEPENDENT ENDOSPERM
T6 sequence (looked up): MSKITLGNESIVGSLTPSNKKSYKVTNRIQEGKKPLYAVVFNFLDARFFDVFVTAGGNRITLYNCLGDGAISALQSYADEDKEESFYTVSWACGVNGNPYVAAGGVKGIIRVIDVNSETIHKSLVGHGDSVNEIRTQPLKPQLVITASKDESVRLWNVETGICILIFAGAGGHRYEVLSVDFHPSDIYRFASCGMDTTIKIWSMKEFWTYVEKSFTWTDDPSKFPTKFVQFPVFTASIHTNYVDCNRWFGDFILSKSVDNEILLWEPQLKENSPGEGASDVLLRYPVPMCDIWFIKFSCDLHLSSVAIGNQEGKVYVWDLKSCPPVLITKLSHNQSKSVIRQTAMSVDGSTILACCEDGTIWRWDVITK
How it was run: as §1

AT3G49850.1 TRB3 = target: T7, AT3G49850.1 TRB3 (Arabidopsis thaliana, UniProt Q9M2X3 1-295)
T7 construct: Endogenous protein found by mass spectrometry
T7 sequence: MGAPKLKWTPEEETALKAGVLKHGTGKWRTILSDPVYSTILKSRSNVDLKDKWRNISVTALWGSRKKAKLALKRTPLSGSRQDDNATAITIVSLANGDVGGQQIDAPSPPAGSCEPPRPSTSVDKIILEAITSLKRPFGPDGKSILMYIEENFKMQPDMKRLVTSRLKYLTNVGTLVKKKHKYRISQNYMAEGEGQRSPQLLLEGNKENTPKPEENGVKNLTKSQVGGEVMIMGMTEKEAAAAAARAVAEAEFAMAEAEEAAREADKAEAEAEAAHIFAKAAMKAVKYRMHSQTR
How it was run: as §1

B1: TRBIP2 (bait of the TRBIP2 IP-MS) (other, not shown: small tags and cut ends)
chain: MATNACLESDSLLPPRKRLLAGFKNQNSRISNESPSPPFASSSSSTTTSNGSSASAVVHTHHLDHLLNDQTRSPEELAQASKATAALAVKVAKAARATANEKAIIASKAVAAAKNALELFASFPAAETVSCKEPRLIRAINNSPRVLTDCSGHRNKKQKTLTSTMNDGNDVAGVVDSDDGTRVNGKLLLCDNTLKEKTEEESSSLGKRRGRVKLPLSMCAYKDQENGITLEENNLSVSKSEGYNGGVAQVIERPSWKCQDLKSPECVKQNKVVRS
notes: tag and its position not described; also called TRBIP2-1; TRBIP2-2
- IP-MS count (AT3G10480.3 NAC050): 0
- IP-MS count (AT5G08450.1 HDC1): 0
- IP-MS count (AT4G35510.1 TRBIP1): 0
- IP-MS count (AT5G67580.1 TRB2): 3
- IP-MS count (AT1G49950.3 TRB1): 5
- IP-MS count (AT3G20740.1 FIE): 0
- IP-MS count (AT3G49850.1 TRB3): 6
